Key:
Experiment in all cases: cell-based or functional assay
双组分毒素HlgAB = 双组分毒素HlgAB (金黄色葡萄球菌 (Staphylococcus aureus), UniProt P0A074 30-309; P0A077 26-325)
双组分毒素HlgA+LukD = 双组分毒素HlgA+LukD (金黄色葡萄球菌 (Staphylococcus aureus), UniProt P0A074 30-309; O54082 27-327)
双组分毒素HlgA+LukF = 双组分毒素HlgA+LukF (金黄色葡萄球菌 (Staphylococcus aureus), UniProt P0A074 30-309; P31715 26-323)

Measured: 兔红细胞溶血中和 (上清OD405)

B1: 鼠源抗原结合蛋白17C7 (antibody, V domains shown)
VH: EVQLQQSGAELVRSGASVKLSCTASGFNIKDYYMHWVKQRPEQGLEWIGWIDPENDIGEYAPKFQGKATMTADTSSNTAYLQLSSLTSEDTAVYFCNALWGGVLDYWGQGTSVTVSA
VL: DVVMTQTPLSLPVSLGDQASISCRSSQSLVNSNGNTYLHWYLQKPGQSPNLLIYRVSNRFSGVPDRFSGSGSGTDFTLKISRVEAEDLGVYFCSQSTHVPYTFGGGTKLEIKR
4 µg: all assays above

Reference: CN114957460A (dated 2022)
